Legend:
[1] = target: T1, PDGFR-alpha on human osteosarcoma MG-63 cells (human, UniProt P16234 24-1089); test: cell-based or functional assay
[2] = target: T2, Recombinant human sPDGFR-alpha (R&D catalog# 322-PR/CF) (human, UniProt P16234 24-528); test: Biacore T100 SPR, 22 C, mAb immobilised on CM5, sPDGFR-alpha injected, 1:1 fit
T2 construct: extracellular domain; Bought reagent; also called soluble PDGFRa; recombinant soluble PDGFR-alpha extracellular domain

[3] = target: T2, Recombinant human sPDGFR-alpha (R&D …); test: soluble PDGFRa binding ELISA, plate coated with recombinant human PDGFR-alpha
[4] = target: T3, Mouse PDGFRa on NIH3T3 cells (mouse, UniProt P26618 25-1089); test: FACS on NIH3T3 cells, 10 ug/ml antibody
T3 construct: whole, on cells; also called endogenous PDGFRa of NIH3T3 murine fibroblasts
T3 sequence (P26618 25-1089): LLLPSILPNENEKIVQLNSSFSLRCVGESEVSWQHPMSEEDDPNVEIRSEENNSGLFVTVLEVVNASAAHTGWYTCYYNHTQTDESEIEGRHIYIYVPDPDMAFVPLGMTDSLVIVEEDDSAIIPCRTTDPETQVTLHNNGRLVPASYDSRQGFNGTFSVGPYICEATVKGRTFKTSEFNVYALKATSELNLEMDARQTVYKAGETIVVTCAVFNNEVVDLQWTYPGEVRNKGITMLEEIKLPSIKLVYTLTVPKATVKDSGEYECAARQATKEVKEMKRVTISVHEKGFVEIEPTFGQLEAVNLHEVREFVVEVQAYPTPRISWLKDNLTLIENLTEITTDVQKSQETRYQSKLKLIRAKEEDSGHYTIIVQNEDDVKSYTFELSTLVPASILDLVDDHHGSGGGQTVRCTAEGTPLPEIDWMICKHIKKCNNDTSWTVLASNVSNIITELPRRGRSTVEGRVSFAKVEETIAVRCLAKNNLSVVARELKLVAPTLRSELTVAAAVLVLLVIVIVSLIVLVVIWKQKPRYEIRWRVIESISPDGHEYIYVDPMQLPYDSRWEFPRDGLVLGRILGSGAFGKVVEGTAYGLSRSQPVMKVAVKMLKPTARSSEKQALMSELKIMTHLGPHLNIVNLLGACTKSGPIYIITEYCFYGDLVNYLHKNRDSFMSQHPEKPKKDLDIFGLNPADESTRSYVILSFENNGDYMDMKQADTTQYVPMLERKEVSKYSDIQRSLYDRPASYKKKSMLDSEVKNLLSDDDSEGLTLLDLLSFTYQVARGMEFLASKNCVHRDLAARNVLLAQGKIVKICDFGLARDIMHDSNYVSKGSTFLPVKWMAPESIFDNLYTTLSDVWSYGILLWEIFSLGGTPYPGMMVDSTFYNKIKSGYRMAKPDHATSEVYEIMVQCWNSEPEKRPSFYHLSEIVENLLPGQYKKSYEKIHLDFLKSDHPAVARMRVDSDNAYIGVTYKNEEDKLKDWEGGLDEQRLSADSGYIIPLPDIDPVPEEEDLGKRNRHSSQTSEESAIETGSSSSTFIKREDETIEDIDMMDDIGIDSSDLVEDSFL

PDGFR-beta = PDGFR-beta (UniProt P09619 33-530, limits assumed); test: method not described
Chain of PDGFR-beta (P09619 33-530 limits assumed): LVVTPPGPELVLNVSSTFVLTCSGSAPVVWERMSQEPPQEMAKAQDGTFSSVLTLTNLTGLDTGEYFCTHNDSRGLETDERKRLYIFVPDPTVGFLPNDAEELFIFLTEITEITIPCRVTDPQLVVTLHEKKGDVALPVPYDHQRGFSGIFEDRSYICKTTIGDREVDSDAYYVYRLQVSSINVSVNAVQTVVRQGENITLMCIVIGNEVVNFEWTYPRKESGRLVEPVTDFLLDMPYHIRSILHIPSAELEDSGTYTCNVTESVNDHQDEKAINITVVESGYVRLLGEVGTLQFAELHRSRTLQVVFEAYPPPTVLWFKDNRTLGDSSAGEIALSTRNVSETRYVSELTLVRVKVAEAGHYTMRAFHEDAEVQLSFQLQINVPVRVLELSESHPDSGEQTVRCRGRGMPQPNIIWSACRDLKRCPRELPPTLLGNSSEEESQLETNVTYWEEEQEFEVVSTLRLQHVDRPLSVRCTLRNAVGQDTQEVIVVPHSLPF

c-kit = c-kit (UniProt P10721 26-520, limits assumed); test: method not described
Chain of c-kit (P10721 26-520 limits assumed): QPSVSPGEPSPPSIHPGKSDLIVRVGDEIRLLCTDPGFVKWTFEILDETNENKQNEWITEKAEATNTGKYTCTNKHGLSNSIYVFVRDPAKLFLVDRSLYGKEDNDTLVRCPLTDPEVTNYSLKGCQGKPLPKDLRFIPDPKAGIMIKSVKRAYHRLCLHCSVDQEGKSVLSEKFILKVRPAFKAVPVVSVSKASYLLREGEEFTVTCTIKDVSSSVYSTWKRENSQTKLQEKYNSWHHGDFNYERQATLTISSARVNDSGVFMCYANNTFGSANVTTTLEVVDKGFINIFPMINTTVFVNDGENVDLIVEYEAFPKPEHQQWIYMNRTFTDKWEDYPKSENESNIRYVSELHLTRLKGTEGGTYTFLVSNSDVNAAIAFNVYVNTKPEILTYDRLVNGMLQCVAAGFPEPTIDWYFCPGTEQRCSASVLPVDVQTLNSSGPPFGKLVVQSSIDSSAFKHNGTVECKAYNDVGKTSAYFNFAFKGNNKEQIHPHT

FLT3 = FLT3 (UniProt P36888 27-541, limits assumed); test: method not described
CSF-1R = CSF-1R (UniProt P07333 20-512, limits assumed); test: method not described
Chain of CSF-1R (P07333 20-512 limits assumed): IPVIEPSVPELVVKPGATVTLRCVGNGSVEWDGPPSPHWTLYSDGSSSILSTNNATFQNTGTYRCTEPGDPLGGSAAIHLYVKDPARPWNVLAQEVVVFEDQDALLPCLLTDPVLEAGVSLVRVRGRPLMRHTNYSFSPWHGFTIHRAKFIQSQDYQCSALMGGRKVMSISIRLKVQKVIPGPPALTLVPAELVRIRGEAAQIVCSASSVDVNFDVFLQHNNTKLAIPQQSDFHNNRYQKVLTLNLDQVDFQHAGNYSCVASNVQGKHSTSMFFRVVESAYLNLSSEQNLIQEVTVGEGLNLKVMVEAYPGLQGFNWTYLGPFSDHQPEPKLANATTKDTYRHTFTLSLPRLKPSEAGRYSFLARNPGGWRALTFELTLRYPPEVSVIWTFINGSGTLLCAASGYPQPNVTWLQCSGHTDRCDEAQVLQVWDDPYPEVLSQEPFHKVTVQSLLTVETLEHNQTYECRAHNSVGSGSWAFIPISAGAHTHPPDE

[5] = target: T1, PDGFR-alpha on human osteosarcoma MG-63 …; test: FACS titration on MG-63 cells, 4 C, Cy5 goat anti-human detection
[6] = target: T1, PDGFR-alpha on human osteosarcoma MG-63 …; test: cell-based or functional assay; remark: listed apart in the source
[7] = target: T4, murine PDGFRa on NIH3T3 cells (murine, UniProt P26618 25-1089); test: FACS on NIH3T3 cells, 10 ug/ml antibody, goat anti-human IgG Cy5
T4 construct: whole, on cells; also called mouse PDGFR-alpha
T4 sequence (P26618 25-1089): as the sequence (P26618 25-1089) above

[8] = target: T4, murine PDGFRa on NIH3T3 cells; test: FACS on NIH3T3 cells, goat anti-human IgG Cy5

T2 sequence (P16234 24-528): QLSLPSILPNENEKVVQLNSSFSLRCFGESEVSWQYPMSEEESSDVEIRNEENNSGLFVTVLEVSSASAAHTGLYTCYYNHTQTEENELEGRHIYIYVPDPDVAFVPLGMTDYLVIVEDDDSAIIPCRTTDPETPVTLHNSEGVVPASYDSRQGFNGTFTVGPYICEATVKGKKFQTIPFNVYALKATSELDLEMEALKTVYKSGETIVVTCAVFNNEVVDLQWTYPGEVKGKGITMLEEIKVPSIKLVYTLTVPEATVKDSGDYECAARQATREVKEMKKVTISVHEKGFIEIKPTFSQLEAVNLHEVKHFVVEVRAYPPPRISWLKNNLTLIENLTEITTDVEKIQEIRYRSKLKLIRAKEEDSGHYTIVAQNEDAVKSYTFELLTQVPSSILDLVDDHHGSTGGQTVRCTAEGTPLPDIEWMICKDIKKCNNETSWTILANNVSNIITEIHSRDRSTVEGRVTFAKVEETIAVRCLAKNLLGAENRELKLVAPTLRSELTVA
T1 sequence (P16234 24-1089): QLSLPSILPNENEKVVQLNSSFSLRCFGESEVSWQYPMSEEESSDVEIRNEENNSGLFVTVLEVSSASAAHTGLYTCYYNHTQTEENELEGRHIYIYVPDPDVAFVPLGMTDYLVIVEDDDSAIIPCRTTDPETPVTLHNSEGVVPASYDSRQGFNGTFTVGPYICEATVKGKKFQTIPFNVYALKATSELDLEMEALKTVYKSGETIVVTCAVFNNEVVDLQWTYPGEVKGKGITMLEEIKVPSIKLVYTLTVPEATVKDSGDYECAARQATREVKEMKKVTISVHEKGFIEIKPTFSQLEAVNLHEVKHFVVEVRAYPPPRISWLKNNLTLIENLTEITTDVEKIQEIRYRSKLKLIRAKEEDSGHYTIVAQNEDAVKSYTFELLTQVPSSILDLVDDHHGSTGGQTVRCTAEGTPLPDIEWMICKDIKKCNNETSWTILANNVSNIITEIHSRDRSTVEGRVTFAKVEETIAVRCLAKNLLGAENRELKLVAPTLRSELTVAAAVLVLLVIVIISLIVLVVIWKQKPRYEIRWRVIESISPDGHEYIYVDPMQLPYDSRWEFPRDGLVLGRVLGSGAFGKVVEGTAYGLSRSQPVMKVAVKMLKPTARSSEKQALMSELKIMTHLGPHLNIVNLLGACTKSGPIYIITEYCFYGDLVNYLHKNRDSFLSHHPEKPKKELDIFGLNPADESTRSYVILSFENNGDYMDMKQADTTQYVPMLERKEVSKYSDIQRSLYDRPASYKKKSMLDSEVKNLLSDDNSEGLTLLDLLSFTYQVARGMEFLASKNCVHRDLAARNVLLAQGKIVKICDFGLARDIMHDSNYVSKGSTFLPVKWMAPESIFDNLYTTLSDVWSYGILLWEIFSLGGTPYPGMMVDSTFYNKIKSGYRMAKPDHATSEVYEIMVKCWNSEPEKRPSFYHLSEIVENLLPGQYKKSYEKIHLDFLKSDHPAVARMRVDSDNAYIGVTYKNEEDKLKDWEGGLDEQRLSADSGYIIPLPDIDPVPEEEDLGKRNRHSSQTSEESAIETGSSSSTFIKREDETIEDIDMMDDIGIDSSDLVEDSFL

| Binder | PTYR Assay IC50 [1] [ng/mL] | Kd [2] [nM] | koff [2] [s⁻¹] | kon [2] [M⁻¹ s⁻¹] | IC50 [3] [µg/mL] | binding result [4] | binding result (PDGFR-beta) | binding result (c-kit) | binding result (FLT3) | binding result (CSF-1R) | Kd [5] [nM] | Proliferation Assay: IC50 ng/ml (1-6-06) [6] [ng/mL] | Proliferation Assay: IC50 ng/ml (1-23-06) [6] [ng/mL] | Proliferation Assay: IC50 (1-6-06) [6] [nM] | Proliferation Assay: IC50 (1-23-06) [6] [nM] | pTyr Assay: % Inhibition @ 2 µg/ml [6] [%] | binding result [7] | binding result [8] |
| --- | --- | --- | --- | --- | --- | --- | --- | --- | --- | --- | --- | --- | --- | --- | --- | --- | --- | --- |
| 2.175.3 variant A (antibody, V domains shown) VH: QVQLVESGGGLVKPGGSLRLSCAASGFTFSDYYMHWIRQAPGKGLEWVSYISRSGSLIYYVDSVKGRFTISRDNAKNSLYLQMNSLRAEDTAVYYCARGGPYSGSPFDYWGQGTLVTVSS VL: DIQMTQSPSSLSASVGDRVTITCRPSQRISRYLNWYQQKPGKAPKLLIYAASSLPSGVPSRFSGSGSGTDFTLTISSLQPEDFATYYCQQSYSTPPWTFGQGTKVEIK | 29 | 0.0071 | 2.53e-06 | 355000 | 0.046 |  |  |  |  |  |  |  |  |  |  |  |  |  |
| 2.175.3 (antibody, V domains shown, Variable regions only) VH: QVHLVESGGGLVKPGGSLRLSCAASGFTFSDYYMHWIRQAPGKGLEWVSYISRSGSLIYYVDSVKGRFTISRDNAKNSLNLQMNSLRAEDTAVYYCARGGPYSGSPFDYWGQGTLVTVSS VL: DIQMTQSPSSLSASVGDRVTITCRPSQRISRYLNWYQQKPGKAPKFLIYAASSLPSGVPSRFSGSGSGTDFTLTISTLQPEDFATYYCQQSYSTPPWTFGQGTKVEIK |  |  |  |  |  | binds | no binding | no binding | no binding | no binding |  |  |  |  |  |  |  |  |
| 2.175.3 (antibody, V domains shown, identified by its values; also called mAb 2.175.3) VH: QVHLVESGGGLVKPGGSLRLSCAASGFTFSDYYMHWIRQAPGKGLEWVSYISRSGSLIYYVDSVKGRFTISRDNAKNSLNLQMNSLRAEDTAVYYCARGGPYSGSPFDYWGQGTLVTVSS VL: DIQMTQSPSSLSASVGDRVTITCRPSQRISRYLNWYQQKPGKAPKFLIYAASSLPSGVPSRFSGSGSGTDFTLTISTLQPEDFATYYCQQSYSTPPWTFGQGTKVEIK | 28 | 0.05 | 2.59e-05 | 516000 | 0.038 |  |  |  |  |  | 0.328 | 67.3 | 56.1 | 0.45 | 0.37 | 100 | binds |  |
| 2.1623.2 (antibody, V domains shown) VH: QVQLVESGGGLVKPGGSLRLSCAASGFTFSDYYMNWIRQAPGKGLEWVSFISSSGSTIYYADSVKGRFTISRDNAKNSLYLQMNSLRAEDTAVYYCARDGHIAARGMDVWGQGTTVTVSS VL: DIQMTQSPSSLSASVGDRVTITCRASQSFSRYINWYQQKPGKAPKLLIYAASSLQGGVPSRFSGSGSGTDFTLAISSLQPEDFATYYCQQTYSTPPITFGQGTRLEIK |  |  |  |  |  |  |  |  |  |  |  | 755 | 982 |  |  | 97 | binds |  |
| 2.449.1 variant A (antibody, V domains shown, also called 2.449.1.3 Variant A; 2.449.1.3 variant A) VH: QVQLVESGGGLVKPGGSLRLSCAASGFTFSDYYMNWIRQAPGKGLEWVSYISSSGSIIYYADSVKGRFTISRDNAKNSLYLQMNSLRAEDTAVYYCAREGRIAARGMDVWGQGTTVTVSS VL: DIQMTQSPSSLSASVGDRVSITCRPSQSFSRYINWYQQKPGKAPKLLIYAASSLVGGVPSRFSGSGSGTDFTLTISSLQPEDFATYYCQQTYSNPPITFGQGTRLEIK | 31 | 0.0086 | 3.8e-06 | 440000 | 0.045 |  |  |  |  |  |  |  |  |  |  |  |  |  |
| 2.449.1.3 (antibody, V domains shown, identified by its values; also called mAb 2.449.1.3) VH: QVQLVESGGGLVKPGGSLRLSCAASGFTFSDYYMNWIRQAPGKGLEWVSYISSSGSIIYYADSVKGRFTISRDNAKNSLYLQMNSLRAEDTAVYYCAREGRIAARGMDVWGQGTTVTVSS VL: DIQMTQSPSSLSASVGDRVSITCRPSQSFSRYINWYQQKPGKAPKLLIHAASSLVGGVPSRFSGSGSGTDFTLTISSLQPEDFATYYCQQTYSNPPITFGQGTRLEMK | 21 | 0.14 | 6.16e-05 | 440000 | 0.044 |  |  |  |  |  | 0.052 | 179 | 237 | 1.2 | 1.57 | 99 |  | no binding (tested: 10 ug/ml) |
| 2.1853.3 (antibody, V domains shown) VH: QVQLVESGGGLVKPGGSLRLSCAASGFTFSDYYMNWIRQAPGKGLEWVSYISSSGSIIYYADSVKGRFTISRDNAKNSLYLQMNSLRAEDTAVYYCARDGRIVARGMDVWGQGTTVTVSS VL: DIQMTQSPSSLCASVGDRVTITCRASRSITRYLNWYQQKPGKAPKLLIYGASSLQSGVPSRFSGSGSGTDFTLTISSLQPEDFATYYCQQSYSTPPITFGQGTRLEIK |  |  |  |  |  |  |  |  |  |  |  | 1120 | 2680 |  |  | 98 | binds |  |
| 2.1853.3 (antibody, V domains shown, Variable regions only) VH: QVQLVESGGGLVKPGGSLRLSCAASGFTFSDYYMNWIRQAPGKGLEWVSYISSSGSIIYYADSVKGRFTISRDNAKNSLYLQMNSLRAEDTAVYYCARDGRIVARGMDVWGQGTTVTVSS VL: DIQMTQSPSSLCASVGDRVTITCRASRSITRYLNWYQQKPGKAPKLLIYGASSLQSGVPSRFSGSGSGTDFTLTISSLQPEDFATYYCQQSYSTPPITFGQGTRLEIK |  |  |  |  |  | binds | no binding | no binding | no binding | no binding |  |  |  |  |  |  |  |  |
| 2.1623.2 (antibody, V domains shown, Variable regions only) VH: QVQLVESGGGLVKPGGSLRLSCAASGFTFSDYYMNWIRQAPGKGLEWVSFISSSGSTIYYADSVKGRFTISRDNAKNSLYLQMNSLRAEDTAVYYCARDGHIAARGMDVWGQGTTVTVSS VL: DIQMTQSPSSLSASVGDRVTITCRASQSFSRYINWYQQKPGKAPKLLIYAASSLQGGVPSRFSGSGSGTDFTLAISSLQPEDFATYYCQQTYSTPPITFGQGTRLEIK |  |  |  |  |  | binds | no binding | no binding | no binding | no binding |  |  |  |  |  |  |  |  |

Reference: patent US20090324601A1 (published 2009)
